Laboratory results published in patent publication US20180244785A1 (MERRIMACK PHARMACEUTICALS, published 2018).
Changes are numbered by the printed parent chain.

T1: 6His-Fc-FGFR4 (human, UniProt P22455 144-369)
T1 construct: not shown: 6His tag and Fc as named in '6His-Fc-FGFR'
T1 sequence: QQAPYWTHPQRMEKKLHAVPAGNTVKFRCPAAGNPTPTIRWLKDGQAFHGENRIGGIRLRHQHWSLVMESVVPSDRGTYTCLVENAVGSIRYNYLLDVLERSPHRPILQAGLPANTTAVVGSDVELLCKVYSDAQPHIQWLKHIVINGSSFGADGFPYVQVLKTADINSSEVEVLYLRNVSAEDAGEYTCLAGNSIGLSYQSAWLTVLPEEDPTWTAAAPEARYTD

T2: 6His-Fc-FGFR1c (human, UniProt P11362 141-376)
T2 construct: not shown: 6His tag and Fc as named in '6His-Fc-FGFR'
T2 sequence: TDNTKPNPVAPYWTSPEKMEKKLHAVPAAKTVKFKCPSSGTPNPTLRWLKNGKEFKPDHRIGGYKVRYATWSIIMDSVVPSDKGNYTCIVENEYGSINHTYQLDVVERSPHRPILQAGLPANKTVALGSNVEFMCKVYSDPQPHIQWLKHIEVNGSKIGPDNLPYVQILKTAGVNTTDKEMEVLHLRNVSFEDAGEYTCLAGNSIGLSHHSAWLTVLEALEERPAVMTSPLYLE

B1: Ab16 (antibody, human IgG2, kappa, V domains shown)
VH: EVQLLESGGGVVQPGRSLRLSCAASGFTFSSYAMHWVRQAPGKGLEWVAVISYDGSNKYYADSVKGRFTISRDNSKNTLSLQMNSLRVEDTAIYYCVRGAGRGYTRGPDGFDIWGQGTMVTVSS
VL: DIVMTQTPLSLSVTPGQPASISCKSSRSLLHSDGKTYVYWYVQKSGQPPQLLIYELSNRFSGVPDRFSGSGSRTDFTLKISRVEAEDVGVYYCMQYIEAPLTFGGGTKVEIKR
notes: format in the assays not spelled out
B2: Ab23 (antibody, human IgG2, V domains shown)
VH: B1 VH with Y104L, R106Y
VL: DIVMTQTPLSLSVTPGQPASISCKSSRSLLHSDGKTYVYWYVQKSGQPPQLLIYELSNRFSGVPDRFSGSGSRTDFTLKISRVEAEDVGVYYCMQYIEAPLTFGGGTKVEIK
notes: Format in the assays not spelled out
B3: Ab25 (antibody, human IgG2, kappa, V domains shown)
VH: B1 VH with R102L, Y104F, R106Y
VL: B1 VL
notes: as for B1
B4: Ab27 (antibody, human IgG2, kappa, V domains shown)
VH: B1 VH with R106L
VL: B1 VL
notes: as for B1
B5: Ab34 (antibody, human IgG2, kappa, V domains shown)
VH: B1 VH
VL: B1 VL with K24T, I97V
notes: as for B1
B6: Ab32 (antibody, human IgG2, kappa, V domains shown)
VH: B1 VH with R102L, Y104F, R106Y
VL: B1 VL with K24T, I97V
notes: as for B1
B7: Ab21 (antibody, human IgG2, kappa, V domains shown)
VH: B1 VH with R102L, Y104W, T105P, R106Y
VL: B1 VL
notes: as for B1
B8: Ab29 (antibody, human IgG2, kappa, V domains shown)
VH: B1 VH with R102L, Y104W, T105P, R106Y
VL: B1 VL with K24T, I97V
notes: as for B1
B9: Ab31 (antibody, human IgG2, kappa, V domains shown)
VH: B1 VH with Y104L, R106Y
VL: B1 VL with K24T, I97V
notes: as for B1
B10: Ab65 (antibody, human IgG2, kappa, V domains shown)
VH: B1 VH with T105P, R106Y
VL: B1 VL with K24T
notes: as for B1
B11: Ab72 (antibody, human IgG2, kappa, V domains shown)
VH: B1 VH with R102M, Y104L, R106Y
VL: B1 VL
notes: as for B1
B12: Ab70 (antibody, human IgG2, kappa, V domains shown)
VH: B1 VH with R102Q, T105P, R106Y
VL: B1 VL
notes: as for B1
B13: Ab82 (antibody, human IgG2, kappa, V domains shown)
VH: B1 VH with R102L, Y104F, T105P, R106F
VL: B1 VL
notes: as for B1
B14: Ab88 (antibody, human IgG2, kappa, V domains shown)
VH: B1 VH with Y104L, R106Y
VL: B1 VL with V38L
notes: as for B1
B15: Ab51 (antibody, human IgG2, kappa, V domains shown)
VH: B1 VH with Y104F, T105P, R106Y
VL: B1 VL with K24R
notes: as for B1
B16: Ab63 (antibody, human IgG2, kappa, V domains shown)
VH: B1 VH with T105P, R106H
VL: B1 VL with K24T
notes: as for B1
B17: Ab57 (antibody, human IgG2, kappa, V domains shown)
VH: B1 VH with R102L, Y104F, T105P, R106Y
VL: B1 VL with K24T
notes: as for B1
B18: Ab68 (antibody, human IgG2, kappa, V domains shown)
VH: B1 VH with R102L, T105P, R106N
VL: B1 VL with K24T
notes: as for B1
B19: Ab67 (antibody, human IgG2, kappa, V domains shown)
VH: B1 VH with Y104F, T105P, R106Y
VL: B1 VL with K24T
notes: as for B1
B20: Ab76 (antibody, human IgG2, kappa, V domains shown)
VH: B1 VH with T28D, S30A, S31G, Y104L, R106Y
VL: B1 VL
notes: as for B1
B21: Ab56 (antibody, human IgG2, kappa, V domains shown)
VH: B1 VH with R102M, Y104L, R106Y
VL: B1 VL with K24T
notes: as for B1
B22: Ab83 (antibody, human IgG2, kappa, V domains shown)
VH: B1 VH with Y104F, T105P, R106Y
VL: B1 VL
notes: as for B1
B23: Ab89 (antibody, human IgG2, kappa, V domains shown)
VH: B1 VH with Y104F, T105P, R106Y
VL: B1 VL with K24R, A99V
notes: as for B1

These binders were tested against FGFR1 on tumour cells (UniProt P11362 22-822) (assay: cell-based or functional assay).
FGFR1 on tumour cells, sequence (P11362 22-822): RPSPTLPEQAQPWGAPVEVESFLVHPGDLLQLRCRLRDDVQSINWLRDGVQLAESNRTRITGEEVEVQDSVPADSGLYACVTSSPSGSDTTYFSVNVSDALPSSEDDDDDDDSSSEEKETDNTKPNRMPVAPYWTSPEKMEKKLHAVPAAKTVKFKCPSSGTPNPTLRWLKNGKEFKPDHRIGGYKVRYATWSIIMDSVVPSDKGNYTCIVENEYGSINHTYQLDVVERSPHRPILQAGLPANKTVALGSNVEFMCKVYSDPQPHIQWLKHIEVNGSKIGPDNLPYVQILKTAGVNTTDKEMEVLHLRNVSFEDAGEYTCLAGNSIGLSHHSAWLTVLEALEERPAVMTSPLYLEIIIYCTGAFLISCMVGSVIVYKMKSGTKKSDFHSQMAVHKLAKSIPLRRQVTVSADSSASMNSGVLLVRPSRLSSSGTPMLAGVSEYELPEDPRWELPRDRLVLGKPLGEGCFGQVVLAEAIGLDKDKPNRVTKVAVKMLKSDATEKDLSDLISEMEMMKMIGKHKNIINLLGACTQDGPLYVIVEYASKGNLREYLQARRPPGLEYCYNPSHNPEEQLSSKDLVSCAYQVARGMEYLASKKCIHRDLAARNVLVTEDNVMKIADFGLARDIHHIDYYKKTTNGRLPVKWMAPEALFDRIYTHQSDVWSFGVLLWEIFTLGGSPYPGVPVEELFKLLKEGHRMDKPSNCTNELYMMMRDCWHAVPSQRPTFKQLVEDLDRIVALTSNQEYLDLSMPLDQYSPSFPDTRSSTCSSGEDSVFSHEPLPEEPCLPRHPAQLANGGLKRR

IC50 of pERK inhibition (AlphaScreen SureFire) in NCI-H1581 cells [nM] | Binder
3.88 | B1
3.04 | B2
1.64 | B3
1.77 | B4
4.83 | B5
2.55 | B6
1.31 | B7
0.54 | B8
2.72 | B9

Each binder was assayed against T1, 6His-Fc-FGFR4 (assay: competition ELISA, blocks 6His-Fc-FGFR4 binding to coated FGF2).
Procedure: (§1) ELISA plates were coated with 50 ug/ml Heparin Sulfate (HSPG) (Sigma Aldrich) and incubated overnight at room temperature. Plates were then washed extensively with PBS containing 0.05% v/v Tween20 (PBST). Plates were then blocked with 2.5% BSA in PBST for one hour and washed extensively as before. 40-60 μL of FGF1 or FGF2 was then added to each well at 40 μg/ml and allowed to bind at room temperature for 2 hours. Plates were then washed extensively with PBST as before. Stock solutions of each 6His-Fc-FGFR (FGFR1-4) were prepared at 500 ng/ml in 2% v/v BSA-PBST and each antibody was prepared as a 2×-dilution series in 2% v/v BSA-PBST. Antibodies dilution series and 6His-Fc-FGFR1-4 were diluted in a 1:1 fashion and immediately added to the relative wells of the plate and allowed to bind for 2 hours at room temperature. Plates were washed extensively as before with PBST and the remaining fraction of bound 6His-Fc-FGFR was detected using a polyclonal-anti-His-6-HRP conjugated antibody (Abcam) for one hour at room temperature. After extensive washing with PBST, 50 μl of Pierce Chemiluminescent substrate (Thermo Fisher Scientific, Rockford, USA) was added and plates were measured on an Envision plate reader (Perkin Elmer). Raw data was background corrected and plotted using Prism software. […]

IC50 [nM] | Binder
40.1 | B1
23.8 | B2
13.4 | B10
11.6 | B11
19.8 | B12
10.4 | B13
11.6 | B3
30.1 | B4
19 | B14
21.1 | B15
17.4 | B16
8.41 | B17
5.67 | B18
12.8 | B19
14.3 | B5
37.3 | B20
11.5 | B6
13.6 | B21
9.96 | B7
154 | B22
5.41 | B8
22.2 | B9
27.4 | B23

The binders below were run against T2, 6His-Fc-FGFR1c (assay: competition ELISA, blocks 6His-Fc-FGFR1c binding to coated FGF2).
Procedure: as §1

IC50 [nM] | Binder
6.28 | B1
4.52 | B2
3.18 | B10
1.77 | B11
4.59 | B12
2.7 | B13
4.95 | B3
5.45 | B4
8.02 | B14
3.86 | B15
12.2 | B16
2.8 | B17
2.96 | B18
5.36 | B19
5.23 | B5
6.3 | B20
4.29 | B6
3.03 | B21
5.54 | B7
9.23 | B22
4.19 | B8
5.21 | B9
11.1 | B23
